Source: article PMC7544229, “Periphilin self-association underpins epigenetic silencing by the HUSH complex” (Nucleic Acids Research, 2020)
Blank lines part the entries; values can stand above or below the binder they belong to.

What was measured:
[1] = molecular target: the molecule itself; experiment: crystal structure; Periphilin 292–367 with TASOR 1014–1095; sitting drop, 18°C, 0.1 M citrate pH 4.5, 1 M ammonium sulfate; SAD phasing with Br; refined at 2.5 Å
[2] = molecular target: T1, TASOR fragment (residues 1014–1095) (human, UniProt Q9UK61-1 1014-1095); experiment: SEC-MALS; minimal Periphilin-TASOR core complex; Superdex 200 10/300 in PBS, 293 K, 0.5 ml/min; details: both partners purified
T1 construct: codon-optimized synthetic gene; untagged; Residues 1055–1071 are disordered in the crystal structure; also called untagged TASOR fragment; minimal core TASOR; source: E. coli BL21 (DE3), co-expressed with His6-Periphilin fragments from pRSF-Duet, co-purified with Periphilin
T1 sequence (looked up): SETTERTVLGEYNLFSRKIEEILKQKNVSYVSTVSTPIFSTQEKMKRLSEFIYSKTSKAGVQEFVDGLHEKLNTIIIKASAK

[3] = molecular target: T1, TASOR fragment (residues 1014–1095); experiment: native MS; non-denaturing mass spectrometry of the His6-Periphilin 285–374 / TASOR 1014–1095 complex; conditions not shown; details: both partners purified

- stoichiometry N [2]: 2 Periphilin per TASOR
B1: Periphilin fragment (residues 292–367) (domain or fragment, human, UniProt Q8NEY8-2 292-367, looked up)
chain: SQLTTRSKAIASKTKEIEQVYRQDCETFGMVVKMLIEKDPSLEKSIQFALRQNLHEIGERCVEELKHFIAEYDTST
notes: codon-optimized synthetic gene; preceded by a His6 tag and a TEV site (ENLYFQG), digested with TEV protease; Two copies of this chain form a homodimer in the 2:1 complex with TASOR; A residue of the TEV site (G) may remain at the N-terminus after cleavage; not shown: His6, N-terminal, cleaved
- binding result [1]: binds

- stoichiometry N [3]: 2 Periphilin per TASOR
B2: His6-tagged Periphilin residues 285–374 (domain or fragment, human, UniProt Q8NEY8-2 285-374, looked up)
chain: GIELFEDSQLTTRSKAIASKTKEIEQVYRQDCETFGMVVKMLIEKDPSLEKSIQFALRQNLHEIGERCVEELKHFIAEYDTSTQDFGEPF
notes: codon-optimized synthetic gene; Construct used for NMR and native mass spectrometry of the Periphilin-TASOR complex; not shown: His6, N-terminal, kept
